The source of these data is patent publication US20140304847A1.

This assay concerns the target Ku70 (endogenous full length protein of the human HEK 293 reporter cells) (UniProt P12956). The assay can be described thus: cell-based or functional assay.

“truncated Ku80 protein, residues 427-732 of mouse Ku80, expressed from pCAG-Ku80(427-732)-bpA (from UniProt P27641 427-732)”: the fold increase of homologous recombination in 293Rab-Rep#4 reporter cells against transfection without the Ku80 fragment amounted to 2 fold.
